No end group written: not given here.
T1: hVEGF-A (8-109) (human, UniProt P15692 214-315)
T1 sequence (looked up): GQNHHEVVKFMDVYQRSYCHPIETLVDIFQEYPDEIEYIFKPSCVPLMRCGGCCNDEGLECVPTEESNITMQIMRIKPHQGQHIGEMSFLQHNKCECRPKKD

B1: VEGF_CKP9.54.90-Alkyn (designed binder)
chain: GCNIMLPFWGCGRDFECLAGCVCQYYQSCG
modifications: cysteine pairing not given here; also: -Alkyn: alkyne modification, position not given here

Biological target: T1, hVEGF-A (8-109)
Experiment: spot phage ELISA
Method: (§1) After four rounds of binding selection, individual phage clones were picked and inoculated into 450 μl 2YT media containing 50 µg/ml Carbenecillin and M13-KO7 helper phage in 96-well blocks, which were grown at 37° C. overnight. […] The plates were washed and bound phage was detected with anti-M13-HRP followed by TMB substrate. In these assays, phage binding to BSA alone was tested in parallel to assess background binding. […] Positive clones were subjected to DNA sequence analysis.

Binder | ELISA | S/N vs BSA
GCQLMQPFWGCKQDSDCLAGCVCHWYQSCG (designed binder, also called E9) [VEGF_CKP9] | 0.4 | 7.4

Biological target: T2, hVEGF-A (human, UniProt P15692-4 27-191, limits assumed)
T2 construct: also called human VEGF-A; WT
Experiment: phage competition ELISA, soluble CKP

Binder | IC50 [nM]
GCRDLDVKWDCKQDSDCLAGCFCQYYSSCG (designed binder) [VEGF_CKP10] | 1000
GCQDPTFNWALYCKQDSDCLAGCVCQMYQSCG (designed binder) [VEGF_CKP7] | 12000
GCPTTRFKQYCKQDSDCLAGCVCGPNGFCG (designed binder) [VEGF_CKP6] | 3000
GCQLMQPFWGCKQDSDCLAGCVCHWYQSCG (designed binder, also called E9) [VEGF_CKP9] | 600
GCRTPWEPHDITCKQDSDCLAGCVCGPNGFCG (designed binder) [VEGF_CKP11] | 80000
GCVTPWKPHWINCKQDSDCLAGCVCGPNGFCG (designed binder) [VEGF_CKP13] | 80000
GCTTPWPPHEIMCKQDSDCLAGCVCGPNGFCG (designed binder) [VEGF_CKP12] | 60000

Biological target: T1, hVEGF-A (8-109)
Experiment: spot phage ELISA
Remark: another data set of the same source
Procedure, shortened: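 Phage clones from four selection rounds were grown overnight at 37 °C with M13-KO7 helper phage. Bound phage was detected with anti-M13-HRP and TMB, with binding to BSA alone run in parallel as background.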

Binder | ELISA | S/N vs BSA
GCRDLDVKWDCKQDSDCLAGCFCQYYSSCG (designed binder) [VEGF_CKP10] | 3.2 | 43.7
GCNIMLPFWGCGQSFECLAGCVCQYYQSCG (designed binder) [VEGF_CKP9.54.1] | 2.4 | 29.9
GCQDPTFNWALYCKQDSDCLAGCVCQMYQSCG (designed binder) [VEGF_CKP7] | 3.4 | 54.5
GCPTTRFKQYCKQDSDCLAGCVCGPNGFCG (designed binder) [VEGF_CKP6] | 3.5 | 51.9
GCQLMQPFWGCKQDSDCLAGCVCHWYQSCG (designed binder, also called E9) [VEGF_CKP9] | 3.3 | 36
GCRTPWEPHDITCKQDSDCLAGCVCGPNGFCG (designed binder) [VEGF_CKP11] | 4.1 | 57.5
GCVTPWKPHWINCKQDSDCLAGCVCGPNGFCG (designed binder) [VEGF_CKP13] | 3.5 | 56.3
GCTTPWPPHEIMCKQDSDCLAGCVCGPNGFCG (designed binder) [VEGF_CKP12] | 3.5 | 55.2

Biological target: T2, hVEGF-A
Experiment: cell-based or functional assay

Binder | Cellular IC50 [nM]
GCQLMQPFWGCKQDSDCLAGCVCHWYQSCG (designed binder, also called E9) [VEGF_CKP9] | 11700
GCDVLQPFWGCKQDSDCLAGCVCHWYQSCG (designed binder) [VEGF_CKP9.2] | 270

Biological target: T1, hVEGF-A (8-109)
Experiment: phage competition ELISA (clone on phage; the concentration varied on the axis is that of hVEGF (8-109))

Binder | IC50 (read off the curve) [nM] | binding result
GCDVMQPYWGCEMDFDCLAGCICHWYNSCGLQ (designed binder) [9.63.44-9] | ~0.03 | 
GCDVMQPYWGCEMDFDCLAGCICHWYNSCGWK (designed binder) [9.63.44-14 (SEQ ID NO: 532)] | ~0.07 | 
GCDVMQPYWGCEMDFDCLVGCVCHWYNSCGDE (designed binder) [9.63.44-10] | ~5 | 
GCDVMQPYWGCEMDFDCLAGCVCHWYNSCGPL (designed binder) [9.63.44-12] | ~0.1 | 
GCDVMQPYWGCEMDFDCLAGCVCHWYNSCGDL (designed binder) [9.63.44-11] |  | binds
GCDVMQPYWGCEMDFDCLAGCVCHWYNSCGQF (designed binder) [9.63.44-13] | ~0.3 | 
GCDVMQPYWGCEMDFDCLAGCICHWYNSCGTS (designed binder) [9.63.44-8] | ~0.02 | 

Biological target: T2, hVEGF-A
Experiment: cell-based or functional assay
Remark: another data set of the same source

Binder | Cellular IC50 [nM] | FOLD [..] [..] TO VARIANT 9.54.90 [fold]
GCNIMLPYWGCGRDFECLAGCVCQYYQSCG (designed binder) [VEGF_CKP9.54.90.F8Y] | 1.58 | 0.85

Biological target: T2, hVEGF-A
Experiment: not given

Binder | IC50 (read off the curve) [nM]
GCNIMLPFWGCGRDFECMNQCICQYYQSCG (designed binder) [VEGF_CKP9.54.90.13] | 20
GCNIMLPFWGCGRDFECMSDCICQYYQSCG (designed binder) [VEGF_CKP9.54.90.12] | 30
GCNIMLPFWGCGRDFECFYECICQYYQSCG (designed binder) [VEGF_CKP9.54.90.62] | 20
GCNIMLPFWGCGRDFECMEQCICQYYQSCG (designed binder) [VEGF_CKP9.54.90.67] | 12 to 20

Biological target: T1, hVEGF-A (8-109)
Experiment: phage competition ELISA (clone on phage; the concentration varied on the axis is that of hVEGF (8-109))
Remark: another data set of the same source

Binder | IC50 (read off the curve) [nM]
GCDVMQPYWGCEMDFDCLAGCVCHWYNSCGGI (designed binder) [9.63.44-7] | ~0.03

Biological target: T1, hVEGF-A (8-109)
Experiment: spot phage ELISA
Remark: another data set of the same source
Method: as §1

Binder | ELISA | S/N vs BSA
GCQDPTFNWALYCKQDSDCLAGCVCQMYQSCG (designed binder) [VEGF_CKP7] | 0.1 | 1.3

Biological target: T2, hVEGF-A
Experiment: cell-based or functional assay
Remark: another data set of the same source

Binder | Cellular IC50 [nM] | FOLD [..] [..] TO VARIANT 9.54.90 [fold]
GCNIMLPFWGCGRDFECMNQCICQYYQSCG (designed binder) [VEGF_CKP9.54.90.13] | 0.96 | 1.41
GCNIMLPFWGCGRDFECMSDCICQYYQSCG (designed binder) [VEGF_CKP9.54.90.12] | 1.2 | 1.12
GCNIMLPFWGCGRDFECFYECICQYYQSCG (designed binder) [VEGF_CKP9.54.90.62] | 0.92 | 1.47
GCNIMLPFWGCGRDFECMEQCICQYYQSCG (designed binder) [VEGF_CKP9.54.90.67] | 1.1 | 1.23

Biological target: T1, hVEGF-A (8-109)
Experiment: phage competition ELISA

Binder | fold improvement in binding affinity compared to 9.54 [fold] | fold improvement in binding affinity compared to 9.54.1 [fold]
GCNIMLPFWGCKQDFDCLAGCICQYYQSCGFH (designed binder) [9.54-28] | ~10 | 
GCNIMLPFWGCGQSFECLAGCICQYYQSCGIA (designed binder) [9.54.1-2] |  | ~10
GCNIMLPFWGCGQSFECLAGCICQYYQSCGGS (designed binder) [9.54.1-63] |  | ~10
GCNIMLPFWGCGQSFECLAGCICQYYQSCGVH (designed binder) [9.54.1-90] |  | ~10
GCNIMLPFWGCGQSFECLAGCICQYYQSCGTR (designed binder) [9.54.1-36] |  | ~10
GCNIMLPFWGCGQSFECLAGCICQYYQSCGLS (designed binder) [9.54.1-42] |  | ~10

Biological target: T1, hVEGF-A (8-109)
Experiment: phage competition ELISA (clone on phage; the concentration varied on the axis is that of hVEGF (8-109))
Remark: another data set of the same source

Binder | IC50 (read off the curve) [nM]
GCNIMLPFWGCGQSFECLAGCVCQYYQSCG (designed binder) [VEGF_CKP9.54.1] | ~0.3
GCNIMLPFWGCKQDFDCLAGCICQYYQSCGFH (designed binder) [9.54-28] | ~0.1
GCNIMLPFWGCGQSFECLAGCICQYYQSCGVH (designed binder) [9.54.1-90] | ~0.08
GCNIMLPFWGCGQSFECLAGCICQYYQSCGTR (designed binder) [9.54.1-36] | ~0.06
GCNIMLPFWGCGQSFECLAGCICQYYQSCGLS (designed binder) [9.54.1-42] | ~0.08

Biological target: T2, hVEGF-A
Experiment: SPR
Method: Depending on the format of the assay either a streptavidin sensor (SA) or a dextran-coated (CM5) sensor was utilized as described below.
Reaction was then quenched by addition of 10 molar excess of Glycine pH 8.0 and the sample was buffer exchanged into PBS using an Amicon 0.5 mL 3000 MWCO ultra-centrifugal filters (EMD Millipore). The biotinylation state of the protein was verified by LC-MS analysis. Biotinylated VEGF-A was then captured on the surface until a resonance unit (RU) signal of about ˜400. For immobilization of VEGF-A on CM5 sensor, the surface was first activated with a mixture of N-ethyl-N′-(3-dimethylaminopropyl)carbodiimide hydrochloride and N-hydroxysuccinimide (EDC/NHS) according to the supplier instructions. VEGF-A was then diluted into coupling buffer (0.1 M Acetate Buffer, pH 5.0) and injected until the signal reached about ˜400 RU followed by a wash with 1 M ethanolamine pH 8.0 to quench remaining activated sites.

Binder | Kd [nM]
B1 | 0.49
GCNIMLPFWGCGQSFECLAGCVCQYYQSCG (designed binder) [VEGF_CKP9.54.1] | 2.2
GCNIMLPYWGCGQSFECLAGCVCQYYQSCG (designed binder) [VEGF_CKP9.54.1.F8Y] | 0.78
GCNIMLPYWGCGRDFECLAGCVCQYYQSCG (designed binder) [VEGF_CKP9.54.90.F8Y] | 0.4
GCQLMQPFWGCKQDSDCLAGCVCHWYQSCG (designed binder, also called E9) [VEGF_CKP9] | 5000

Biological target: T2, hVEGF-A
Experiment: phage competition ELISA, soluble CKP
Remark: another data set of the same source

Binder | IC50 [nM]
GCQLMQPFWGCKQDSDCLAGCVCHWYQSCG (designed binder, also called E9) [VEGF_CKP9] | 1360
GCDVLQPFWGCKQDSDCLAGCVCHWYQSCG (designed binder) [VEGF_CKP9.2] | 168

Biological target: T2, hVEGF-A
Experiment: cell-based or functional assay
Remark: another data set of the same source

Binder | Cellular IC50 [nM]
GCNIMLPFWGCGQSFECLAGCVCQYYQSCG (designed binder) [VEGF_CKP9.54.1] | 1.47
GCQLMQPFWGCKQDSDCLAGCVCHWYQSCG (designed binder, also called E9) [VEGF_CKP9] | 11700

Biological target: T1, hVEGF-A (8-109)
Experiment: spot phage ELISA
Remark: another data set of the same source
Method: as §1

Binder | ELISA | S/N vs BSA
GCQLMQPFWGCKQDSDCLAGCVCHWYQSCG (designed binder, also called E9) [VEGF_CKP9] | 0.4 | 7.4
GCDVLQPFWGCKQDSDCLAGCVCHWYQSCG (designed binder) [VEGF_CKP9.2] | 2.4 | 31.1

Biological target: T2, hVEGF-A
Experiment: KDR-VEGF competition ELISA

Binder | IC50 [nM]
GCNIMLPFWGCGQSFECLAGCVCQYYQSCG (designed binder) [VEGF_CKP9.54.1] | 0.2
GCQLMQPFWGCKQDSDCLAGCVCHWYQSCG (designed binder, also called E9) [VEGF_CKP9] | 569
